Laboratory results from patent EP4803151A2 (Lepu Biopharma Co., Ltd., dated 2026).

T1: mouse DLL3 his tag protein (KACTUS, Cat. No. DLL-MM103) (mouse, UniProt O88516 33-490, limits assumed)
T1 construct: Bought protein; also called mDLL3-his; mouse DLL3 protein; not shown: his tag
T1 sequence (looked up): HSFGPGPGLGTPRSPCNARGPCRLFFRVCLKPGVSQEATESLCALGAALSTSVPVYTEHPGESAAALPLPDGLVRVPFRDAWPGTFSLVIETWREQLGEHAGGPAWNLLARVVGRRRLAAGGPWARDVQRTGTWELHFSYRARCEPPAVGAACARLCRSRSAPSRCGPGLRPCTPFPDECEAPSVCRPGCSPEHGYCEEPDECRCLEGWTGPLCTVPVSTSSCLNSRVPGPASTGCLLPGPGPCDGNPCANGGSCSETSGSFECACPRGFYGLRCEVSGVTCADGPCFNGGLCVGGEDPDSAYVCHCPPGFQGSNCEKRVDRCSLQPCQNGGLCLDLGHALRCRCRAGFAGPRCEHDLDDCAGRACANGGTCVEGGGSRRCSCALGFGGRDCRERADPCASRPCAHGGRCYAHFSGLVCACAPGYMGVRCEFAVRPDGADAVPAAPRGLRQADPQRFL

T2: human full length DLL1 expressed on CHO-K1 cells (human, UniProt O00548 18-723)
T2 construct: whole, on cells; also called CHO-K1-hDLL1
T2 sequence (looked up): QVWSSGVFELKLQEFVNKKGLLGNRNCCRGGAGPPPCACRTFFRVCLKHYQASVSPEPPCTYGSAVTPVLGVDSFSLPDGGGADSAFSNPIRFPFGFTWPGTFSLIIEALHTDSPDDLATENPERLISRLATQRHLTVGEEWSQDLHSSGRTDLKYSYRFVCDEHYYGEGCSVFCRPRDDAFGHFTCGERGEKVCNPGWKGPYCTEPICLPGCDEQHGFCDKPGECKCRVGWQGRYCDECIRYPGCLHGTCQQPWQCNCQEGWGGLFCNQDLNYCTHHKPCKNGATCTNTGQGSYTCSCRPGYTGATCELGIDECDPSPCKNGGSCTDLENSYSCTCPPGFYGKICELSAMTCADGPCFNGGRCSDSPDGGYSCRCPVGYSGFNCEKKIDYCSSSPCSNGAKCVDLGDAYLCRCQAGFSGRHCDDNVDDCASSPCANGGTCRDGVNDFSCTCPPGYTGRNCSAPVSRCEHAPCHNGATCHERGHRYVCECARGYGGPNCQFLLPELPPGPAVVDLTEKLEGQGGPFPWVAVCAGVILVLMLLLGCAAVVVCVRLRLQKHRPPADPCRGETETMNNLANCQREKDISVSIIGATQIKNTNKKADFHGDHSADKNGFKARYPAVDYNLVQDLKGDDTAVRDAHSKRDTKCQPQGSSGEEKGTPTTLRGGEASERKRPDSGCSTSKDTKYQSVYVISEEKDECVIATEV

T3: human DLL1 his tag fusion protein (Sino Biological, Cat. No. 11635-H08H) (human, UniProt O00548 18-540)
T3 construct: Bought protein; also called hDLL1-his; hDLL1 protein; not shown: his tag
T3 sequence (looked up): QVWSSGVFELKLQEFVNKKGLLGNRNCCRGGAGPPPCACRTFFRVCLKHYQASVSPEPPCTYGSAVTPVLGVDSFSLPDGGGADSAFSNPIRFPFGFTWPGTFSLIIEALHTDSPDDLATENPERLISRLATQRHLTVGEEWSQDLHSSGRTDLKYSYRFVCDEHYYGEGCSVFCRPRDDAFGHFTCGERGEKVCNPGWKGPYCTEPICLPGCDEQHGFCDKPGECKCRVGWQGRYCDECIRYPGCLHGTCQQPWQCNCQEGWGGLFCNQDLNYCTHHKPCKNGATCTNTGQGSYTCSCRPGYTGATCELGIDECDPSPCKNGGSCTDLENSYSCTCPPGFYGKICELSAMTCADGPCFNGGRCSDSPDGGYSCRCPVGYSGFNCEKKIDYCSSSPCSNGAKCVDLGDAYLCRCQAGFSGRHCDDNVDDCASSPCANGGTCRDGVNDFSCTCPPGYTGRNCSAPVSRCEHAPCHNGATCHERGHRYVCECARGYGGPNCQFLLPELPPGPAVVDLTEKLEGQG

T4: ECD of human DLL3 protein fused with his tag (Acro Bio, Cat. No. DL3-H52H4) (human, UniProt Q9NYJ7 27-492)
T4 construct: range 27-492; Bought protein; also called hDLL3-his; human DLL3-his protein; not shown: his tag
T4 sequence (looked up): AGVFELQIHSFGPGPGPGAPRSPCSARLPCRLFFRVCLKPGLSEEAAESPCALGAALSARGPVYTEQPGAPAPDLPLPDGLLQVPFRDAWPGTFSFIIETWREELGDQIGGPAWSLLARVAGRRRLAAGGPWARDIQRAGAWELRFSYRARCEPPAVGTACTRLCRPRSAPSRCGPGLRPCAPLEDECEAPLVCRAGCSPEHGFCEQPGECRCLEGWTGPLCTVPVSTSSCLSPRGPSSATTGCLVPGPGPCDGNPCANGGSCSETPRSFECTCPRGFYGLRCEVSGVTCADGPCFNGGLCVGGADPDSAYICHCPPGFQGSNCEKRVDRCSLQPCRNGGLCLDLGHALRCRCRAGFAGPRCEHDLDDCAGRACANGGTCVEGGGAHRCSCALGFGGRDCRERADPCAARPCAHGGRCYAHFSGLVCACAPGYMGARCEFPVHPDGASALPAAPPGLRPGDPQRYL

T5: human DLL3 endogenously expressed on SCLC tumor cell lines SHP77 and NCI-H82 (human, UniProt Q9NYJ7 27-618)
T5 construct: whole, on cells; also called human DLL3 expressed on tumor cells
T5 sequence (looked up): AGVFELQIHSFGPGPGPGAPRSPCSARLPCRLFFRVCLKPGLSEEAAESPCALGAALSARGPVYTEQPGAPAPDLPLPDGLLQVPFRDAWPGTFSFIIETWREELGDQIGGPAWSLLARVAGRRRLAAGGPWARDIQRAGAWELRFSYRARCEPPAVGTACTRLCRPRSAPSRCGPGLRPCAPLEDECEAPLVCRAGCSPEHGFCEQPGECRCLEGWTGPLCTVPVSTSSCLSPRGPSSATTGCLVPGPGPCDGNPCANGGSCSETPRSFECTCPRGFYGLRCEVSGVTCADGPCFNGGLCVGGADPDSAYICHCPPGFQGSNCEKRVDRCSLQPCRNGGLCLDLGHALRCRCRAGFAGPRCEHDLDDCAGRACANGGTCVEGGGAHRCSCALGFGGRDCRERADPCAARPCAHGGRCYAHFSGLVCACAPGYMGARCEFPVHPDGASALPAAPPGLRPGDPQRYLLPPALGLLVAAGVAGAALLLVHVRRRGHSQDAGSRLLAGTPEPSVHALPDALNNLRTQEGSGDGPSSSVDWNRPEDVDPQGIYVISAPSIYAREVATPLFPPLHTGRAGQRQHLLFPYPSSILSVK

T6: ECD of human DLL3 over-expressed on HEK293 cells (human, UniProt Q9NYJ7 27-492)
T6 construct: extracellular domain; also called HEK293-hDLL3; human DLL3 expressed on HEK293 cells
T6 sequence (looked up): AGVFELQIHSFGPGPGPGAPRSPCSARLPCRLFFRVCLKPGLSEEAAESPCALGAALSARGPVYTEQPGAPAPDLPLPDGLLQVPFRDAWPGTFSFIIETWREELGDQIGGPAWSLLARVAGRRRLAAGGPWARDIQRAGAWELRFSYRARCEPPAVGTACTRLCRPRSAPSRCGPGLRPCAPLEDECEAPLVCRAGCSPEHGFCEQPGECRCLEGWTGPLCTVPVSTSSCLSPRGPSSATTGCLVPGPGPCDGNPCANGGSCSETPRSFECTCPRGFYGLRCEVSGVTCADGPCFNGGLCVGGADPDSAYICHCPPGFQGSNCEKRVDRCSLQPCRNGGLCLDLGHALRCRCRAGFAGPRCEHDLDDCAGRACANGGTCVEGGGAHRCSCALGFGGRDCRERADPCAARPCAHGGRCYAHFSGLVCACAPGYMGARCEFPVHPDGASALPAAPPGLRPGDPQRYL


Legend:
[1] = target: T1, mouse DLL3 his tag protein (KACTUS, …); experiment: ELISA, mDLL3-his coated at 1 ug/mL
[2] = target: T2, human full length DLL1 expressed on …; experiment: flow cytometry on CHO-K1-hDLL1 cells
[3] = target: T3, human DLL1 his tag fusion protein (Sino …); experiment: ELISA, hDLL1-his coated at 1 ug/mL
[4] = target: T7, human DLL4 his tag fusion protein (Sino Biological, Cat. No. 10171-H08H) (human, UniProt Q9NR61 27-524); experiment: ELISA, hDLL4-his coated at 1 ug/mL
T7 construct: Bought protein; also called hDLL4-his; hDLL4 protein; not shown: his tag

[5] = target: T4, ECD of human DLL3 protein fused with …; experiment: SPR, Biacore 8K, antibody captured on Protein A chip, single dose of human DLL3-his
[6] = target: T5, human DLL3 endogenously expressed on …; experiment: flow cytometry on SHP77 and NCI-H82 cells
[7] = target: T6, ECD of human DLL3 over-expressed on …; experiment: flow cytometry on HEK293-hDLL3 cells
[8] = target: T4, ECD of human DLL3 protein fused with …; experiment: ELISA, hDLL3-his coated at 1 ug/mL

T7 sequence (Q9NR61 27-524 limits assumed): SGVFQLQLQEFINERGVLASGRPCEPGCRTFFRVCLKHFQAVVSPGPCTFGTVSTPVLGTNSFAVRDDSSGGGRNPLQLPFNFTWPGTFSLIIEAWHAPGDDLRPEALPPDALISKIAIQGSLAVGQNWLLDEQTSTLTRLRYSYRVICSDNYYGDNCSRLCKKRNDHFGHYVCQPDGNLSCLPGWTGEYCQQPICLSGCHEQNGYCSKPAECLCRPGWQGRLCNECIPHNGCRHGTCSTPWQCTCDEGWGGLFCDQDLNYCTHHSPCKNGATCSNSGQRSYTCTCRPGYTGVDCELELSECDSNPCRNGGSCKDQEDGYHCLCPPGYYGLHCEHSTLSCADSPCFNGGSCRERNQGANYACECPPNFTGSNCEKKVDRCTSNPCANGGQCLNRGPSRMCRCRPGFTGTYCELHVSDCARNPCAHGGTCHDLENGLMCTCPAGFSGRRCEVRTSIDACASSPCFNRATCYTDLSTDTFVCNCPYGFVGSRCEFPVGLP

Binder | binding result [1] | binding result [3] | binding result [4] | binding result [5] | binding result [6] | binding result [7] | binding result [8] | binding result [2]
148C3A7-hIgG1 chimeric antibody (antibody, V domains shown) VH: EVQLQQSGPELIKPGTSVKMSCKASGYTFTTYLMHWVKQKPGQGLEWIGYINPYNDVTEYHEKFKDKATLTSDKSSSTAYMELSSLTSEDSAVYYCARLGGYGPGWYLDVWGAGTTVTVSS VL: DIQMTQSPASLSASVGETVTITCRASGSIHNYLAWYLHKQGKSPQLLVYNAKTLADGVPSRFSGSGSGTQYSLKINSLQPEDFGSYYCHHFWSTPWTFGGGTKLEIKR | binds | no binding (tested: up to 100 nM) | no binding (tested: up to 100 nM) | binds | binds | binds |  | no binding (tested: highest dose level 100 nM)
129H2B9-hIgG1 chimeric antibody (antibody, V domains shown) VH: EVNLEESGGGLVQPGGSMKLSCVVSGFTFSNYWMSWVRQSPEKGLEWVAEIRLKSDNYATHYAESVKGKFTISRDDSKSRLYLQMNSLRPEDTGIYYCTSNRFAYWGQGTLVTVSA VL: NIVMTQSPKSVSMSVGERVTLSCKASENVGTYVYWYQQKPEQSPKMMIYGASNRYTGVPDRFTGSGSATDFTLTIRSVQAEDLADYHCGQSYSYPFTFGSGTKLEIKR | binds | no binding (tested: up to 100 nM) | no binding (tested: up to 100 nM) | binds |  | binds |  | no binding (tested: highest dose level 100 nM)
310P3C5-hIgG1 chimeric antibody (antibody, V domains shown) VH: EVQLQQSGPELVKPGASVKISCKASGYTFTDFYMNWVKQTHGKSLEWIGDANPNNGGTTHNPRFKGQATLTVDKSSNTAYMELRSLTSEDSAVYYCARGGLPGDFDYWGQGTTLTVSS VL: DIQMTQSSSSFSVSLGDRVTITCKASEDIYNRLAWYQQKPGNAPRLLISGVTSLETGVPSRFSGSGSGKDYTLSITSLQTEDVATYYCQQYWSFPWTFGGGTKLEIKR | binds | no binding (tested: up to 100 nM) | no binding (tested: up to 100 nM) | binds | binds | binds |  | no binding (tested: highest dose level 100 nM)

Now from value to binder, other results behind:

binding result [1] | binding result [3] | binding result [4] | binding result [5] | binding result [6] | binding result [7] | binding result [8] | Binder | binding result [2]
binds | no binding (tested: up to 100 nM) | no binding (tested: up to 100 nM) |  | binds | binds | binds | 9E8D8-hIgG1 chimeric antibody (antibody, V domains shown) VH: QVQLQQSGAELVRPGASVKLSCKALGYTFTDSEIHWVKQTPVHGLEWIGAIHPRNGGTAYNQKFRGKATLSADRSSNTAYMELSSLTSEDSAVYYCSRGYFLDYWGQGTSVTVSS VL: not shown | no binding (tested: highest dose level 100 nM)
binds | binds | binds | binds | binds | binds |  | 362H3D3-hIgG1 chimeric antibody (antibody, V domains shown) VH: EVQLQQSGPELLKPGASVKISCKASGYTFTDYTMHWVKQSHGRSLEWIGGIHPNYGGTSYNEKFKDKATLTVDKSSSTAYMEFRSLTSEDSAVYYCARWGYYGGSYWYFDVWGTGTTVTVSS VL: DIQMTQSPASLSVSVGETVTITCRASENIYSNLAWYQQKQGKSPQLLVYAATNLADGVPSRFSGSGSGTQYSLKINSLQSEDFGSYYCQHFWGTPYTFGGGTKLEIKR | binds
